Source: publication PMC10810746

Target: RbcL (large subunit of form I ribulose 1,5-bisphosphate carboxylase oxygenase) (Synechococcus sp. PCC 7335)
Experiment: cryo-EM structure; single-particle cryo-EM of form I Rubisco found in the same fraction; 2.35 Å, D4 symmetry

stoichiometry N: 8
Substance: RbcL (large subunit of form I ribulose 1,5-bisphosphate carboxylase oxygenase) (enzyme)
